Residue numbers refer to the chain shown, from its start. Names may count otherwise.

First the molecules themselves.
B1: hz20-7 (antibody, IgG1, V domains shown)
VH: QVQLVQSGAEVKKPGASVKVSCKASGYTFTNYGISWVRQAPGQGLEWMGEIYPRSGNTYHNEKFKDRVTMTTDTSTSTAYMELRSLRSDDTAVYYCARSMITTRYWYFDVWGKGTTVTVSS
VL: DIVMTQSPDSLAVSLGERATINCRASESVDTYGNSFMHWYQQKPGQPPKLLIYLASNLESGVPDRFSGSGSGTDFTLTISSLQAEDVAVYYCQQNNEDPLTFGQGTKLEIK
notes: also called clone 20-based hz20-7 antibody
B2: hz20-3 (antibody, V domains shown)
VH: B1 VH with Q1E, T72A, T74K, Y95F, K113Q, T116L
VL: DIQMTQSPSSLSASVGDRVTITCRASESVDTYGNSFMHWYQQKPGKAPKLLIYLASNLESGVPSRFSGSGSGTDFTLTISSLQPEDFATYYCQQNNEDPLTFGQGTKVEIK
notes: light constant region not tied to this antibody
B3: hz20-13 (antibody, V domains shown)
VH: B1 VH with A40R, T74K, D89E
VL: B1 VL
notes: as for B2
B4: hz20-14 (antibody, V domains shown)
VH: B1 VH with A40R, T74K, D89E
VL: B1 VL with S80D
notes: as for B2
B5: hz20-10 (antibody, V domains shown)
VH: B1 VH with T74K
VL: B1 VL with S80D
notes: as for B2
B6: hz20-12 (antibody, V domains shown)
VH: B1 VH with K12A, A40R, D89E
VL: B1 VL with S80D
notes: as for B2
B7: hz20-11 (antibody, V domains shown)
VH: B1 VH with K12A, A40R, D89E
VL: B1 VL
notes: as for B2
B8: hz20-4 (antibody, V domains shown)
VH: B1 VH with T72A, A79V, R84S, D89E
VL: B1 VL with Q104A, I110L
notes: as for B2
B9: hz20-9 (antibody, V domains shown)
VH: B1 VH with T74K
VL: B1 VL
notes: as for B2
B10: hz20-5 (antibody, V domains shown)
VH: B1 VH with A40R, M48I, T72A, A79V, R84S, D89E
VL: B1 VL with Q104A, I110L
notes: as for B2
B11: hz20-8 (antibody, V domains shown)
VH: B1 VH
VL: B1 VL with S80D
notes: as for B2
B12: hz13-12 (antibody, IgG1, V domains shown)
VH: EVQLVQSGAEVKKPGATVKISCTSSDFNIKDHFIHWVQQAPGKGLEWMGRIDPEDDETKYAPKFQDRVTITADTSTDTAYMELSSLRSEDTAVYYCAGYGNYEGAMDYWGQGTTVTVSS
VL: DVVMTQSPLSLPVTLGQPASISCRASENVNNYGIGFMNWFQQRPGQSPRLLIYAASRRGSGVPDRFSGSGSGTDFTLKISRVEEEDVGVYYCQQSKEVPYTFGGGTKVEIK
notes: also called clone 13-based hz13-12 antibody
B13: hz13-11 (antibody, V domains shown)
VH: B12 VH
VL: B12 VL with L50R, E84A
notes: as for B2
B14: hz13-10 (antibody, V domains shown)
VH: B12 VH with T23K, S24V
VL: B12 VL
notes: as for B2
B15: hz13-12 D31E (antibody, human IgG1, kappa, V domains shown)
VH: B12 VH with D31E
VL: DVVMTQSPLSLPVTLGQPASISCRASENVNNYGIGFMNWFQQRPGQSPRLLIYAASRRGSGVPDRFSGSGSGTDFTLKISRVEEEDVGVYYCQQSKEVPYTFGGGTKVEIKR
notes: IgG1.3f; also called hz3-12 D31E

T1 sequence (Q9UM07 whole entry): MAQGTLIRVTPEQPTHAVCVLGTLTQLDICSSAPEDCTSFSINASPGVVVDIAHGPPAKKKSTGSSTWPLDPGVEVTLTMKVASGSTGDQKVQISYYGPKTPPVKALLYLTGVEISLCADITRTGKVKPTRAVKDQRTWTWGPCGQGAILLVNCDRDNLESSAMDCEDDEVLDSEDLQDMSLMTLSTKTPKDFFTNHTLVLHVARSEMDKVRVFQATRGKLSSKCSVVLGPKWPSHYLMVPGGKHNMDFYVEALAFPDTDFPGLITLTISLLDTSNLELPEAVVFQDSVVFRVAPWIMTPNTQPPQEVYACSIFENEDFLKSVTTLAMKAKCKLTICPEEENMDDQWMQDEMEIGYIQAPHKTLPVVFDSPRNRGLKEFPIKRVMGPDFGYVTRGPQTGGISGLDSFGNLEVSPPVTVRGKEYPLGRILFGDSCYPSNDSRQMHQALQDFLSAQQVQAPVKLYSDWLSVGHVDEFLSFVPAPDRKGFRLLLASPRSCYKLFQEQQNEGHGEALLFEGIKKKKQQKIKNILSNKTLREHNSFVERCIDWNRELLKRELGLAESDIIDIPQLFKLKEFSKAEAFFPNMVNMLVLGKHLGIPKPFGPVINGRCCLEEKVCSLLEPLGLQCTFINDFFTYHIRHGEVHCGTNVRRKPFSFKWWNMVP

One assay addresses extracellular matrix (ECM) proteins. Nature of the assay: ECM plate ELISA (Matrigel), 1 uM antibody, A450 over wells without sample. Background: ELISA stands for enzyme-linked immunosorbent assay.
With B1, the ECM Score (1 µM) stood at 5.
Same read-out and setting: with B2 the figure was 20.
Still for that read-out and setting: with B3 the figure was 19.
Still for that read-out and setting: with B4 the figure was 20; with B5, 18.
As for B6, the ECM Score (1 µM) was 3.
Same read-out and setting: for B7 the value was 4.
On the same count and under the same terms, for B8 the value was 1; for B9, 19.
The same measure, in the same setting: for B10 the value was 3; for B11, 4.
B12 gave an ECM Score (1 µM) of 1.
The same measure, in the same setting: with B13 the figure was 1; with B14, 1.

A further assay addresses T1, recombinant human PAD4 (human, UniProt Q9UM07 1-663). The assay is described as follows: cell-based or functional assay.
With B1, the “IC50 (average), PAD4 citrullination of peptide …, RapidFire MS” value (“IC50 (average), PAD4 citrullination” below) amounted to 64.7 nM.
As for B2, the “IC50 (average), PAD4 citrullination” value came out at 58 nM.
Same read-out and setting: for B3 the value was 52.6 nM.
With B4, the “IC50 (average), PAD4 citrullination” value is 56.9 nM.
For the molecule B5, the “IC50 (average), PAD4 citrullination” value is 57.4 nM.
On the same count and under the same terms, for B6 the value was 59 nM; for B7, 65.7 nM.
On the same count and under the same terms, with B8 the figure was 118 nM.
The same measure, in the same setting: with B9 the figure was 107 nM.
For the molecule B10, the “IC50 (average), PAD4 citrullination” value was 56.5 nM.
On the same count and under the same terms, with B11 the figure was 71.9 nM; with B12, 42.4 nM.
B13: the “IC50 (average), PAD4 citrullination” value was 88.7 nM.
Still for that read-out and setting: for B14 the value was 55.8 nM.

A further assay concerns the target T1, recombinant human PAD4. The assay is described as follows: SPR 37 C, captured antibody, PAD4 analyte, 1 mM CaCl2. The method, then:
Their binding to human PAD4 was measured by Surface Plasmon Resonance (SPR). SPR measurements were performed with a Biacore® 8K, 8K+, or T200 instrument (Cytiva). The association rate constants, kₒₙ, dissociation rate constants, koff, and equilibrium dissociation constants, KD, of the antibodies with PAD4 were determined from these SPR measurements.
(§1) For SPR measurements, either an anti-human capture surface or Protein A surface (Cytiva catalog #29127555) was used. Anti-human capture surface was prepared by immobilizing anti-human capture antibody (Cytiva catalog #29234600) onto flow cells of a CM5 or CM4 biosensor following the manufacturer's amine coupling protocol (Cytiva catalog #BR-1006-33). SPR experiments were conducted at 37° C. using HBS-P (150 mM NaCl, 10 mM HEPES, pH 7.6, 0.05% Tween-20) (TEKNOVA catalog #H8032) with additional 150 mM NaCl and 1 mM or 2 mM CaCl₂) (see Table 2) or 2 mM EDTA (see Table 3) as running buffer. Antibodies were diluted to 1.5 μg/mL in the running buffer, and were captured across active biosensor flow cells at 10 μL/min for 15 to 30 seconds. […] The association and dissociation of the antibodies with PAD4 were measured. One 30 second injection followed by one 15 second injection of 10 mM glycine pH 1.5 was used to regenerate the Protein A capture surface between assay cycles. For anti-human capture surface, two 30 second injections of 3 M MgCl₂ was used for regeneration. SPR measurements for mAb20 and mAb 13 SPR were done in the presence of 2 mM CaCl₂). The remaining antibodies were tested in the presence of 1 mM CaCl₂).
(§2) Rate constants kₒₙ and koff were derived from reference flow cell- and 0 nM blank-subtracted sensorgrams, and were fit to a 1:1 binding model in Biacore® Insight Evaluation software version 3.0.12.15655. Deviations from 1:1 binding model were observed, which may be caused by increased dimerization of PAD4 at higher concentrations. The equilibrium dissociation constant, KD, was calculated as the ratio of rate constants koff/kₒₙ for each PAD4 antibody.
For B1, the Kd was 0.8 nM, the koff was determined as 0.00026 s⁻¹ and the kon was 350000 M⁻¹ s⁻¹.
The corresponding values for B2 are 0.5 nM, 0.00023 s⁻¹ and 500000 M⁻¹ s⁻¹.
The corresponding values for B3 are 0.5 nM, 0.00019 s⁻¹ and 390000 M⁻¹ s⁻¹.
The corresponding values for B4 are 0.6 nM, 0.0002 s⁻¹ and 340000 M⁻¹ s⁻¹.
In the case of B5, the equilibrium dissociation constant (Kd) was 0.3 nM, the koff worked out at 0.00017 s⁻¹ and the kon turned out to be 640000 M⁻¹ s⁻¹.
The corresponding values for B6 are 0.6 nM, 0.00019 s⁻¹ and 320000 M⁻¹ s⁻¹.
The corresponding values for B7 are 0.9 nM, 0.00025 s⁻¹ and 300000 M⁻¹ s⁻¹.
Taken in the same sequence, the figures for B8 were 1.7 nM, 0.00046 s⁻¹ and 270000 M⁻¹ s⁻¹.
As for B9, the Kd came out at 0.3 nM, the koff is 0.00015 s⁻¹ and the kon turned out to be 490000 M⁻¹ s⁻¹.
On to B10, for which the Kd is 1.9 nM, the koff amounted to 0.00045 s⁻¹ and the kon amounted to 250000 M⁻¹ s⁻¹.
The corresponding values for B11 are 0.8 nM, 0.00025 s⁻¹ and 320000 M⁻¹ s⁻¹.
Take B12: the Kd stood at 0.1 nM, the koff amounted to 0.0002 s⁻¹ and the kon was found to be 3.1e+06 M⁻¹ s⁻¹.
As to B15, the Kd was 0.1 nM, the koff came to 0.0003 s⁻¹ and the kon was 2.7e+06 M⁻¹ s⁻¹.
The corresponding values for B13 are 0.1 nM, 0.00015 s⁻¹ and 1.9e+06 M⁻¹ s⁻¹.
Turning to B14, the Kd worked out at 0.1 nM, the koff was found to be 0.00017 s⁻¹ and the association rate constant (kon) was found to be 2.2e+06 M⁻¹ s⁻¹.

The next assay concerns the target T1, recombinant human PAD4. Nature of the assay: SPR 37 C, captured antibody, PAD4 analyte, 2 mM EDTA. The method, then: as §1
as §2, with “antibody. For those antibodies that were tested in multiple SPR experiments, the average value and standard deviation from two or three separate experiments are listed in Tables 2 and 3.” for “antibody.”
As for B1, the dissociation constant Kd is 0.5 nM, the koff amounted to 0.00021 s⁻¹ and the on-rate (kon) is 380000 M⁻¹ s⁻¹.
Taken in the same sequence, the figures for B2 were 0.9 nM, 0.00031 s⁻¹ and 340000 M⁻¹ s⁻¹.
The corresponding values for B3 are 0.4 nM, 0.00018 s⁻¹ and 440000 M⁻¹ s⁻¹.
The corresponding values for B4 are 0.4 nM, 0.00018 s⁻¹ and 450000 M⁻¹ s⁻¹.
For the molecule B5, the Kd stood at 0.4 nM, the koff was 0.00018 s⁻¹ and the association rate constant (kon) amounted to 480000 M⁻¹ s⁻¹.
Take B6: the Kd came out at 0.6 nM, the koff turned out to be 0.00021 s⁻¹ and the kon worked out at 380000 M⁻¹ s⁻¹.
As for B7, the equilibrium dissociation constant (Kd) came to 0.6 nM, the koff is 0.00022 s⁻¹ and the on-rate constant (kon) was 390000 M⁻¹ s⁻¹.
The corresponding values for B8 are 3 nM, 0.00073 s⁻¹ and 240000 M⁻¹ s⁻¹.
The corresponding values for B9 are 0.4 nM, 0.00018 s⁻¹ and 480000 M⁻¹ s⁻¹.
Taken in the same sequence, the figures for B10 were 1.7 nM, 0.0004 s⁻¹ and 240000 M⁻¹ s⁻¹.
Consider B11, for which the Kd came out at 0.6 nM, the koff stood at 0.00022 s⁻¹ and the on-rate constant (kon) was found to be 360000 M⁻¹ s⁻¹.

One may read the Kd as the constant that tells how readily two partners part at equilibrium. The koff is a measure of how fast the partners let go of each other. What is called kon is a measure of how fast the partners come together.
